{
  "source": "patent US9856460B2",
  "about": "“Nucleic acids encoding synthetic scaffolds and host cells genetically modified with the nucleic acids” (The Regents of the University of California, priority 2008, dated 2018)",
  "molecules": {"B1": {"name": "G1S2P2: optimized scaffold polypeptide with 1, 2, and 2 repeats of GBD, SH3, and PDZ domains (SEQ ID NO:37) (protein)", "chain": "MTKADIGTPSNFQHIGHVGWDPNTGFDLNNLDPELKNLFDMCGISEAQLKDRETSKVIYDFIEKTGGVEAVKNELRRQAPGSGSGSGGSMAEYVRALFDFNGNDEEDLPFKKGDILRIRDKPEEQWWNAEDSEGKRGMIPVPYVEKYGSGSGSGGSMAEYVRALFDFNGNDEEDLPFKKGDILRIRDKPEEQWWNAEDSEGKRGMIPVPYVEKYGSGSGSGGSMLQRRRVTVRKADAGGLGISIKGGRENKMPILISKIFKGLAADQTEALFVGDAILSVNGEDLSSATHDEAVQALKKTGKEVVLEVKYMKEVSPYFKGSGSGSGGSMLQRRRVTVRKADAGGLGISIKGGRENKMPILISKIFKGLAADQTEALFVGDAILSVNGEDLSSATHDEAVQALKKTGKEVVLEVKYMKEVSPYFKGS"}},
  "system": "mevalonate biosynthetic pathway",
  "experiment": "Mevalonate production with synthetic scaffolds in E. coli",
  "format": "cell-based, Escherichia coli",
  "method": "The scalability of the co-recruitment strategy was tested by building separate scaffold devices capable of co-localizing multiple enzymes. Scaffolds provide a means for physically separating the binding elements for design control from the catalytic activities. Thus, the only modification to the enzyme necessary for gaining modular control over complex formation is the addition of a single interaction ligand to each enzyme. A peptide ligand specific for a corresponding protein-protein interaction domain was recombined to the C-terminus of each enzyme of the mevalonate biosynthetic pathway (FIG. 3a). Scaffolds were built by tethering together, via flexible nine amino acid glycine-serine linkers, different numbers of three protein-protein interaction domains from metazoan genomes: the GTPase Binding Domain (GBD) from the actin polymerization switch N-WASP, the SH3 domain, and the PSD95/DlgA/Zo-1 (PDZ) domain from the adaptor protein syntrophin (see Table 1, below).\nBy varying the number of repeats of these interaction domains, the ratio of individual pathway enzymes co-localized to the resultant complex could be controlled. Scaffolds were built with a single GBD domain for recruiting AtoB and varying numbers of SH3 and PDZ domains for recruiting HMGS and HMGR, respectively. A matrix of scaffolds was made with the architecture (N-terminal to C-terminal) of GBDxSH3yPDZz where x=1 and y and z were varied to be 1, 2, or 4. For separate inducible control, the pathway enzymes were placed under transcriptional control of the tetracycline-inducible promoter (Ptet), and the scaffolds were under transcriptional control of the arabinose-inducible promoter (PBAD). In an effort to lower the metabolic load imposed on the production host, mevalonate production experiments were conducted with low expression levels of the mevalonate pathway enzymes (7 nM aTc) and a high scaffold expression level (250 μM arabinose) to improve pathway efficiency.",
  "note": "“Also recorded” adds a separate entry of the source.",
  "data": [
    {"molecule": "B1", "values": [
      {"measurement": "change in mevalonate production with increasing concentrations of glycerol", "setting": "glycerol as carbon source, increases saturated at approximately 4% glycerol", "result": "improved dramatically; also recorded: significant increases"},
      {"measurement": "fold increase in mevalonate production compared to the unscaffolded pathway (G0S0P0)", "setting": "low pathway enzyme expression (7 nM aTc), high scaffold expression (250 μM arabinose), 4% glycerol", "result": 77, "unit": "fold"},
      {"measurement": "fold more mevalonate than G0S0P0-GFP", "setting": "pathway under pTET, scaffold under pBAD, control expresses GFP instead of scaffold", "result": 77, "unit": "fold"}
    ]}
  ]
}
